Experimental data reported in patent US20100144530A1, “IDENTIFICATION OF A NEW CLASS OF EPSP SYNTHASES” (priority 2005, published 2010).

Tested on: ΔaroA E. coli cells
Assay: Complementation of ΔaroA E. coli cells (functional EPSP synthase)
Assay type: cell-based
Details: plasmid transformed into ΔaroA E. coli cells

| Molecule | Complementation of the aroA deletion |
| --- | --- |
| grg6: EPSP synthase ORF from Pseudomonas syringae pv. tomato strain DC3000, in plasmid pAX703 (SEQ ID NO:1/2) (protein) MRPQATLTVMPVERPLVGRVSPPGSKSITNRALLLAGLAKGTSRLTGALKSDDTRVMSEALRLMGVQVDEPDDSTFVVTSSGHWQAPQQALFLGNAGTATRFLTAALANFEGDFVVDGDEYMRKRPIGPLVDALQRMGVEISAPSGCPPVAIKGKGGLQAGRIEIDGNLSSQYVSALLMAGACGKGSLEVALTGSEIGARGYVDLTLAAMQAFGAEVQAIGDAAWKVSATGYHATDFHIEPDASAATYLWAAQALTEGNIDLGVASDAFTQPDALASQIIDSFPNMPAVIDGSQMQDAIPTLAVLAAFNRQPVRFVGIANLRVKECDRISALCDGLCAIAPGLAVEEGDDLIVHANPALAGTTVNALIDTHSDHRIAMCFALAGLKIKGIHIQDPDCVAKTYPGYWDALASLGVSVQR | complement the deletion |
| grg9: EPSP synthase ORF from Agrobacterium tumefaciens strain C58, in plasmid pAX702 (SEQ ID NO:3/4) (protein) MIELTITPPGHPLSGKVEPPGSKSITNRALLLAGLAKGKSHLSGALKSDDTLYMAEALREMGVKVTEPDATTFVVEGTGVLQQPEKPLFLGNAGTATRFLTAAGALVDGAVIIDGDEHMRKRPILPLVQALRALGVEADAPTGCPPVTVRGKGMGFPKGSVTIDANLSSQYVSALLMAAACGDKPVDIILKGEEIGAKGYIDLTTSAMEAFGAKVERVSNAIWRVHPTGYTATDFHIEPDASAATYLWGAELLTGGAIDIGTPADKFTQPDAKAYEVMAQFPHLPAEIDGSQMQDAIPTIAVIAAFNETPVRFVGIANLRVKECDRIRAVSLGLNEIREGLAHEEGDDLIVHADPSLAGQTVDASIDTFADHRIAMSFALAALKIGGIAIQNPACVAKTYPGYWKALASLGVDYTEKESAAEPQH | complement the deletion |
